Data as given in patent US20230119066A1.

Legend:
[1] = target: mouse C-C Motif Chemokine Receptor 8 (mCCR8) (mouse) (UniProt P56484); experiment: cell-based or functional assay
[2] = target: mouse C-C Motif Chemokine Receptor 8 (mCCR8) (mouse) (UniProt P56484); experiment: flow cytometry on mCCR8-expressing CHO cells
[3] = target: mouse C-C Motif Chemokine Receptor 8 (mCCR8) (mouse) (UniProt P56484); experiment: flow cytometry on mouse thymic CD4+ cells
[4] = target: mouse C-C Motif Chemokine Receptor 8 (mCCR8) (mouse) (UniProt P56484); experiment: flow cytometry on activated mouse splenic CD4+ cells

Sequence of mouse C-C Motif Chemokine Receptor 8 (mCCR8) (mouse) (P56484 whole entry): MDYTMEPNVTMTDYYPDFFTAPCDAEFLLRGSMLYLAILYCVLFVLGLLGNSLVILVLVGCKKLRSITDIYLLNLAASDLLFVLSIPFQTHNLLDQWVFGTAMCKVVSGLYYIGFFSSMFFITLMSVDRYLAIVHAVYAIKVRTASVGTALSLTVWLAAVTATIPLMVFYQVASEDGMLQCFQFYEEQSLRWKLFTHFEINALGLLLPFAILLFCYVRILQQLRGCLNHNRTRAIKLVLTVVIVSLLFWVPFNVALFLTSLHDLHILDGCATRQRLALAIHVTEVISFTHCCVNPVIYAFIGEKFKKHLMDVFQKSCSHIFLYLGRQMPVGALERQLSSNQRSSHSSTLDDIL

anti-CCR8-mIgG2a, mouse IgG2a isotype of rat anti-mCCR8 mAb Clone SA214G2 (BioLegend) (antibody)
EC50, crosslinking of mouse FcgRIV+ luciferase reporter effector cells [1]: 6.34 nM | IC50, blockade of Ca flux on mCCR8-expressing CHO cells [1]: 19.3 nM | EC50 [2]: 6.44 nM | EC50 [3]: 4 nM | EC50 [4]: 6.16 nM
